Values quoted from earlier work, collected in paper PMC12990809.

How the values were obtained:
Test in all cases: pulldown
Details in all cases: 20 nM protein, 1.5 uM RNA pool; 20 mM HEPES pH 7.8, 70 mM KCl, 10 mM NaCl, 10% glycerol, 2 mM DTT, 0.1 ug/uL BSA; 30 min, 4 C (protocol of this paper; not …); cited from earlier work
[1] = target: T1, NCU08034 (Neurospora crassa) (UniProt Q7SAK7)
T1 sequence: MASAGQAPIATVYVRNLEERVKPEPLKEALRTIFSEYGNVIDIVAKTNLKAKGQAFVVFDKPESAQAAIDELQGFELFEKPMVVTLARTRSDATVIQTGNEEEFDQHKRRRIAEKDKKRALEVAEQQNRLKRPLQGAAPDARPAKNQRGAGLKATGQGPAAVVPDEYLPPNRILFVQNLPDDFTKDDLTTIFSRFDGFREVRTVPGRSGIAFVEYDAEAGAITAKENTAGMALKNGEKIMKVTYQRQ

[2] = target: T2, sf3b4 (Danio rerio) (UniProt A0ACM8Q308)
T2 sequence: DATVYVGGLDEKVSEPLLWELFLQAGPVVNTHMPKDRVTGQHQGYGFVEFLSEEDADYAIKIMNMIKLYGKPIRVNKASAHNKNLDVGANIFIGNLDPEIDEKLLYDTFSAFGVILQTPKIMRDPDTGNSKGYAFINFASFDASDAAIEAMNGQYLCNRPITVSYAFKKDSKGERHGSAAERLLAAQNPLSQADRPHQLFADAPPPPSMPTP

[3] = target: T3, Tb927.3.3930 N185S (Trypanosoma brucei) (UniProt Q57WC9)
T3 sequence: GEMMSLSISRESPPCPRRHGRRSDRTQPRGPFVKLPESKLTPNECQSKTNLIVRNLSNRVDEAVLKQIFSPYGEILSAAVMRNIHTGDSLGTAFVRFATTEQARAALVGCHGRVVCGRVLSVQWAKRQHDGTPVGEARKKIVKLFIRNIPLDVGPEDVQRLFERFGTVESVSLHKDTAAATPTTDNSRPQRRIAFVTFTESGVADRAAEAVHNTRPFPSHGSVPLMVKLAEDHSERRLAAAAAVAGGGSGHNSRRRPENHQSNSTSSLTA

[4] = target: T4, PFI1695c (Plasmodium falciparum) (UniProt Q8I2G9)
T4 sequence: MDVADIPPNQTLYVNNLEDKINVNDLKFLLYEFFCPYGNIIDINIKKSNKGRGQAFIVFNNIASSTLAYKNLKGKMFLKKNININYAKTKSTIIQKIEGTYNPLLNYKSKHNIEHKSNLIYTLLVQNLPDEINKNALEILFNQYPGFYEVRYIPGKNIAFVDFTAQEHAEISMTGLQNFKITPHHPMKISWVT

[5] = target: T5, Tb927.8.6650 (Trypanosoma brucei) (UniProt Q57TU8)
T5 sequence: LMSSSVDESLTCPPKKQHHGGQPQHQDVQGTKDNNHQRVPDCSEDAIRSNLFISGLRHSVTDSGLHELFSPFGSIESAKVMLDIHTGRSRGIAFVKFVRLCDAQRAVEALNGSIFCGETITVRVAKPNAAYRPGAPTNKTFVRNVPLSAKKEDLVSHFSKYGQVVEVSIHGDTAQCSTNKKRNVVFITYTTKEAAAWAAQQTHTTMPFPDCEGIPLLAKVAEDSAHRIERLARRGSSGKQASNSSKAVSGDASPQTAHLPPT

[6] = target: T6, e_gw1.81.40.1 (Physcomitrella patens) (UniProt A0A2K1J988)
T6 sequence: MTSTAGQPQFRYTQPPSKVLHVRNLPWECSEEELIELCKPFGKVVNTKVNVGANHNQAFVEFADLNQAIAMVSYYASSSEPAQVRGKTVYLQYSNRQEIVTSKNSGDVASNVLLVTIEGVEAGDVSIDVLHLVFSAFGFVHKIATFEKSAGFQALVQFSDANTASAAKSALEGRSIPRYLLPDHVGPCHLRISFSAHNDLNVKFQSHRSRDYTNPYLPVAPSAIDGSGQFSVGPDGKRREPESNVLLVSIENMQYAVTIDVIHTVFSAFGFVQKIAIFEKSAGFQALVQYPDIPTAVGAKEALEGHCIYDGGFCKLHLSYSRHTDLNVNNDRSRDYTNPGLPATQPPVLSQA

[7] = target: T7, PF13_0315 (Plasmodium falciparum) (UniProt Q8IDB7)
T7 sequence: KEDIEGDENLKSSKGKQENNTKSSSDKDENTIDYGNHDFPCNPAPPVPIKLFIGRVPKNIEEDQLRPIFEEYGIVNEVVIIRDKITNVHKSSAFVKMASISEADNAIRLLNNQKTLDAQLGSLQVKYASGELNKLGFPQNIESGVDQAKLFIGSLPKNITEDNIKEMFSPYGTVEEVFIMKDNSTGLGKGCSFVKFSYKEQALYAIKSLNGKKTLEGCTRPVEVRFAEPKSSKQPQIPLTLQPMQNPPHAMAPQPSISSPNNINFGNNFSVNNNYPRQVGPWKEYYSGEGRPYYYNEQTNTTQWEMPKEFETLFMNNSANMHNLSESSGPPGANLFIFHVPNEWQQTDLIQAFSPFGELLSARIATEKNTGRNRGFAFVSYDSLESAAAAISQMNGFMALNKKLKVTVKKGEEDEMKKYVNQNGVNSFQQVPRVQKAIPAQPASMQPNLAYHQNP

[8] = target: T8, LmjF.18.0180 (Leishmania major) (UniProt Q4QE24)
T8 sequence: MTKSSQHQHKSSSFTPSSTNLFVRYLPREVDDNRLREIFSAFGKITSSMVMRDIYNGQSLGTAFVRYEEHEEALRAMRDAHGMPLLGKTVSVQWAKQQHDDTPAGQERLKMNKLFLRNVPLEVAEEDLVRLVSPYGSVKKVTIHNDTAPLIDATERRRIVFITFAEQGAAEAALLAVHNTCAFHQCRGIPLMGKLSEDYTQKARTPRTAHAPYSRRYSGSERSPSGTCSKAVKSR

[9] = target: T9, TVAG_302220 (Trichomonas vaginalis) (UniProt A2EGP7)
T9 sequence: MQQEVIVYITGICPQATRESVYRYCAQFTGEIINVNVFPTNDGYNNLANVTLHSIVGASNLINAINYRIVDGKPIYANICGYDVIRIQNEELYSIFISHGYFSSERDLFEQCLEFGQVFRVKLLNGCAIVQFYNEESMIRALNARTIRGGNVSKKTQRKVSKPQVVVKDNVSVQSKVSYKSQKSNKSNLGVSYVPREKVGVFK

[10] = target: T10, Thaps1841 (Thalassiosira pseudonana) (UniProt B8BS34)
T10 sequence: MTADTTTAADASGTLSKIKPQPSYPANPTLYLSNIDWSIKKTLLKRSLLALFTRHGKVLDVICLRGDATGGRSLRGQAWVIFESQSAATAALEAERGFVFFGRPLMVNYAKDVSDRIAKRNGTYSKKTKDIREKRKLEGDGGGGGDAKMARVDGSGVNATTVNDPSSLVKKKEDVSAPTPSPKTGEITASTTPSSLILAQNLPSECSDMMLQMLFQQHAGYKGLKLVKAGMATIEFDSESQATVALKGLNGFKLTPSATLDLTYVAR

[11] = target: T11, gw1.84.45.1 (Physcomitrella patens) (UniProt A0A2K1L0S1)
T11 sequence: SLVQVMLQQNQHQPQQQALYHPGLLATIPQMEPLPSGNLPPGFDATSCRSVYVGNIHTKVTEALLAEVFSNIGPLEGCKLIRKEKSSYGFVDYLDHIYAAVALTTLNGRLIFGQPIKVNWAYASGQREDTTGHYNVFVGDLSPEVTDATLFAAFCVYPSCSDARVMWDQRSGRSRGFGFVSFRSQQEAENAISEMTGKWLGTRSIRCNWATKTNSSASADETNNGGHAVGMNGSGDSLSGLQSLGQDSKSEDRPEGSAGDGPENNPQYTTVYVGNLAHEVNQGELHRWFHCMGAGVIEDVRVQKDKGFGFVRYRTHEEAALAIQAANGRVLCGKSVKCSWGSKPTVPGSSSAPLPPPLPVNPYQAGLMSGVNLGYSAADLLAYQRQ

[12] = target: T12, RO3G_00049 (Rhizopus oryzae) (UniProt I1BGL5)
T12 sequence: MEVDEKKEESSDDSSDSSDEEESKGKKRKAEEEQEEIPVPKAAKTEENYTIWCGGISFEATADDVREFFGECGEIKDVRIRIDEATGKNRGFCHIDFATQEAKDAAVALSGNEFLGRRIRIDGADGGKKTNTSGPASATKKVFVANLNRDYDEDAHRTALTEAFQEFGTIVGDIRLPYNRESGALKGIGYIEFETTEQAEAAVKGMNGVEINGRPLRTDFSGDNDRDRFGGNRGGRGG

[13] = target: T13, PFI1435w (Plasmodium falciparum) (UniProt C0H570)
T13 sequence: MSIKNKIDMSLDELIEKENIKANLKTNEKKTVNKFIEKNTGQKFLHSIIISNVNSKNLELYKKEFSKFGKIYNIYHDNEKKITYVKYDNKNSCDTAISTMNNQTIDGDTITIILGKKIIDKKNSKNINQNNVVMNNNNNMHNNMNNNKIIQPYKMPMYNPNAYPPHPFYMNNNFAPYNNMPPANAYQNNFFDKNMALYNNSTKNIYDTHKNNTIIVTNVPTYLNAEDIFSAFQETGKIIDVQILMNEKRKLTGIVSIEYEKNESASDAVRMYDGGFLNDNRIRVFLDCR

[14] = target: T14, gw1.219.6.1 (Physcomitrella patens) (UniProt A0A2K1KNA4)
T14 sequence: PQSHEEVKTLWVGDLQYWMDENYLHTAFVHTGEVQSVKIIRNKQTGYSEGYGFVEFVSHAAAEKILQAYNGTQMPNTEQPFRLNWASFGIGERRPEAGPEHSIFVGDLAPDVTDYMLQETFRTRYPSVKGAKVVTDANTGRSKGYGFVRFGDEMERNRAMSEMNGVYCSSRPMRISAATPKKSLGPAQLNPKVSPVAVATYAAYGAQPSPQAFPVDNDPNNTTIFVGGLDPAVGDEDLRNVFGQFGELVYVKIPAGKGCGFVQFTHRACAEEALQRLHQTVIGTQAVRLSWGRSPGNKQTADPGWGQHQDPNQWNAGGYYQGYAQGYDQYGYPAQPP

[15] = target: T15, Tb09.211.0560 (Trypanosoma brucei) (UniProt Q38EA2)
T15 sequence: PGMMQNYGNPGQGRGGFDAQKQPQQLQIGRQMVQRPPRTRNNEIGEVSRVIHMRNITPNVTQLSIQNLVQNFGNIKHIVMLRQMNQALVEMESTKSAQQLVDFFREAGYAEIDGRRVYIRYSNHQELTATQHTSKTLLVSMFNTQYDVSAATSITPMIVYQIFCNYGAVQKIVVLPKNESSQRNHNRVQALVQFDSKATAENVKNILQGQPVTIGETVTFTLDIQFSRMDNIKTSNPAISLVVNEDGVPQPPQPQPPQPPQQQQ

[16] = target: Pcbp3 (Mus musculus) (UniProt P57722)
Pcbp3 (Mus musculus), sequence (P57722 33-371): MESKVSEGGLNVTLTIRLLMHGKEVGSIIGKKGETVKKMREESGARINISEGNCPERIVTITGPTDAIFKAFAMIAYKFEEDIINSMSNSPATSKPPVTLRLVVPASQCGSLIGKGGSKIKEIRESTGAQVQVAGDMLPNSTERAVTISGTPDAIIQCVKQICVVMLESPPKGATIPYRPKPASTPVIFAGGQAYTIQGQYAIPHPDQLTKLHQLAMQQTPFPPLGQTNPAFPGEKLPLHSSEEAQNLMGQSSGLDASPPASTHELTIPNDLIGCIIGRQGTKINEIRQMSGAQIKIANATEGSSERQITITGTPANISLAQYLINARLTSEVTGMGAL

[17] = target: T16, LmjF.32.0750 (Leishmania major) (UniProt Q4Q5K7)
T16 sequence: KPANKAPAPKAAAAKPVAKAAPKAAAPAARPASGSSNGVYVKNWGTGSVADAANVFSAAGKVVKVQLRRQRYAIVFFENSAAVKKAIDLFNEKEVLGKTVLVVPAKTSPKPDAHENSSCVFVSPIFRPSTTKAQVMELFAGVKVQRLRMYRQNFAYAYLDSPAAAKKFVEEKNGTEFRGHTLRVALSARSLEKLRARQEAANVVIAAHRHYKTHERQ

[18] = target: T17, Tb927.7.5380 (Trypanosoma brucei) (UniProt Q582F3)
T17 sequence: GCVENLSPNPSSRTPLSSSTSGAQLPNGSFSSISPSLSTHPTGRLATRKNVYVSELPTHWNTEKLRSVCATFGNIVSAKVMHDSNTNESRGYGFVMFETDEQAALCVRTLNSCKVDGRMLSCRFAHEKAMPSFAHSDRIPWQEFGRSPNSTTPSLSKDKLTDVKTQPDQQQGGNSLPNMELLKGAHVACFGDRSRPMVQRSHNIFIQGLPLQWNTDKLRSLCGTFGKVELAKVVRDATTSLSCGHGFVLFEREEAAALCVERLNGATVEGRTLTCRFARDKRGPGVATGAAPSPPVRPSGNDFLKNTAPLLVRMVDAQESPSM

Sequence: AGCACA [RNAcompete motif RNCMPT00209]
- binding signal (z-score (mean of top ten 7-mers)) [1]: 11.1

Sequence: CAAAAG [RNAcompete motif RNCMPT00224]
- binding signal (z-score (mean of top ten 7-mers)) [2]: 28.4

Sequence: CAUUGU [RNAcompete motif RNCMPT00216]
- binding signal (z-score (mean of top ten 7-mers)) [3]: 18.7

Sequence: CCUGCAC [RNAcompete motif RNCMPT00203]
- binding signal (z-score (mean of top ten 7-mers)) [4]: 9.07

Sequence: UAUACU [RNAcompete motif RNCMPT00219]
- binding signal (z-score (mean of top ten 7-mers)) [5]: 15.8

Sequence: AACCUUU [RNAcompete motif RNCMPT00206]
- binding signal (z-score (mean of top ten 7-mers)) [6]: 6.39

Sequence: UUACAU [RNAcompete motif RNCMPT00200]
- binding signal (z-score (mean of top ten 7-mers)) [7]: 7.45

Sequence: CAUUUU [RNAcompete motif RNCMPT00212]
- binding signal (z-score (mean of top ten 7-mers)) [8]: 30.2

Sequence: CAAUAA [RNAcompete motif RNCMPT00226]
- binding signal (z-score (mean of top ten 7-mers)) [9]: 12.9

Sequence: ACACGC [RNAcompete motif RNCMPT00225]
- binding signal (z-score (mean of top ten 7-mers)) [10]: 6.33

Sequence: UUUUUU [RNAcompete motif RNCMPT00228]
- binding signal (z-score (mean of top ten 7-mers)) [11]: 12.9

Sequence: AGGGGAA [RNAcompete motif RNCMPT00205]
- binding signal (z-score (mean of top ten 7-mers)) [12]: 9.5

Sequence: UUUUUU [RNAcompete motif RNCMPT00202]
- binding signal (z-score (mean of top ten 7-mers)) [13]: 6.28

Sequence: UGUUUUU [RNAcompete motif RNCMPT00229]
- binding signal (z-score (mean of top ten 7-mers)) [14]: 6.94

Sequence: CUUUCU [RNAcompete motif RNCMPT00220]
- binding signal (z-score (mean of top ten 7-mers)) [15]: 6.05

Sequence: CUUUCC [RNAcompete motif RNCMPT00215]
- binding signal (z-score (mean of top ten 7-mers)) [16]: 6.23

Sequence: UACACG [RNAcompete motif RNCMPT00223]
- binding signal (z-score (mean of top ten 7-mers)) [17]: 10.4

Sequence: UUAUU [RNAcompete motif RNCMPT00218]
- binding signal (z-score (mean of top ten 7-mers)) [18]: 7.15
